B1: 4-Met substituted E. coli Cir (colicin Ia receptor), the paper's wildtype (WT) Cir [E. coli] / Microcin V (MccV), mature, wildtype [modified: biotinylated (EZ-Link Sulfo-NHS-LC kit) for BLI and ELISA; not labelled for cryo-EM … (parent)
chain 1: VDDDGETMVVTASSVEQNLKDAPASISVITQEDLQRKPVQNLKDVLKEVPGVQLTNEGDNRKGVSIRGLDSSYTLILVDGKRVNSRNAVFRHNDFDLNWIPVDSIERIEVVRGPMSSLYGSDALGGVVNIITKKIGQKWSGTVTVDTTIQEHRDRGDTYNGQFFTSGPLIDGVLGMKAYGSLAKREKDDPQNSTTTDTGETPRIEGFSSRDGNVEFAWTPNQNHDFTAGYGFDRQDRDSDSLDKNRLERQNYSVSHNGRWDYGTSELKYYGEKVENKNPGNSSPITSESNTVDGKYTLPLTAINQFLTVGGEMRHDKMSDAVNLTGGTSSKTSASQYALFVEDEWRIFEPLALTTGVRMDDHETYGEHWSPRAYLVYNATDTVTVKGGWATAFKAPSLLQLSPDWTSNSCRGACKIVGSPDLKPETSESWELGLYYMGEEGWLEGVESSVTVFRNDVKDRISISRTSDVNAAPGYQNFVGFETGANGRRIPVFSYYNVNKARIQGVETELKIPFNDEWKLSINYTYNDGRDVSNGENKPLSDLPFHTANGTLDWKPLALEDWSMYMSGHYTGQKRADSATAKTPGGYTIWNTGAAWQVTKDVKLRAGVLNLGDKDLSRDDYSYNEDGRRYFMAVDYRF
chain 2: ASGRDIAMAIGTLSGQFVAGGIGAAAGGVAGGAIYDYASTHKPNPAMSPSGLGGTIKQKPEGIPSEAWNYAAGRLCNWSPNNLSDVCL

Variants of B1 are the subject of this test. Briefly: BLI. The note with it: for Kd: 100 nM biotinylated MccV loaded onto streptavidin-coated sensors, probed with dilutions of Cir, PBS-T; for response: raw shift at end of association (600 s), 100 nM biotinylated MccV on sensor, not baseline-subtracted, read off a plot.
Setting [1] is: with 4-Met substituted E. coli Cir (colicin Ia receptor).

We go through 4 variants from article PMC12511343, “Structural insights into Cir-mediated killing by the antimicrobial protein Microcin V” (Communications Biology, 2025).

On to chain 1 C410A, for which the Kd (with Microcin V (MccV)) is 552 nM. Besides, under “with Microcin V (MccV), 5 µM Cir, PBST trace at about 1.5 nm”, the response came out at 4.5 nm. For the variant chain 2 D85A, under setting [1], the equilibrium dissociation constant (Kd) was 888 nM. Besides, the response (with 4-Met substituted E. coli Cir (colicin Ia receptor), 5 µM WT Cir, PBST trace at about 1.65 nm) is 3.3 nm. As for chain 2 D85R, the Kd under setting [1] worked out at 692 nM. Further, the response (with 4-Met substituted E. coli Cir (colicin Ia receptor), 5 µM WT Cir, PBST trace at about 1.85 nm) stood at 3.2 nm.

As for chain 1 R411E R465E, where the note is “with Microcin V (MccV)”, the Kd worked out at 1580 nM.
